Consider three substances from patent US20020119153A1.

In assay [1] the target is VEGF:sFlk-1 complex (human; mouse) (UniProt P15692). Put plainly: capture ELISA: biotinylated sFlk-1 complexed with VEGF titrated onto wells coated with the antibody; concentration giving 50% maximal binding; extrapolated value.
The target of assay [2] is recombinant human VEGF165 (human) (UniProt P15692). Put plainly: blocking ELISA, negative control: 1 nM VEGF bound to wells coated with VEGFR1 (Flt-1/Fc) with 1000 nM control IgG of irrelevant specificity (1000x) present; bound VEGF detected with rabbit anti-VEGF A-20; the number measures VEGF:VEGFR1 binding, not binding of the control IgG to VEGF. For orientation: An ELISA detects its analyte on a solid surface through an enzyme-linked reagent.
Chain of recombinant human VEGF165 (human) (P15692 other isoform, or with tags, fused parts or gaps): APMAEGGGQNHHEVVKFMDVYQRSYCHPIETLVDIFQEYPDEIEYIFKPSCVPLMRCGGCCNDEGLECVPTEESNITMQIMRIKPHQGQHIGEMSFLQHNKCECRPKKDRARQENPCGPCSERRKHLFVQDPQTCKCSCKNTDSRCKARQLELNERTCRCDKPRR

Assay [3] shares this target. The assay is described as follows: blocking ELISA, negative control: 1 nM VEGF bound to wells coated with VEGFR2 (sFlk-1) with 100 nM control IgG of irrelevant specificity (100x) present; bound VEGF detected with rabbit anti-VEGF A-20; the number measures VEGF:VEGFR2 binding, not binding of the control IgG to VEGF.
For assay [4] the target is unchanged. Put plainly: blocking ELISA, negative control: 1 nM VEGF bound to wells coated with VEGFR1 (Flt-1/Fc) with 100 nM control IgG of irrelevant specificity (100x) present; bound VEGF detected with rabbit anti-VEGF A-20; the number measures VEGF:VEGFR1 binding, not binding of the control IgG to VEGF.
The target is the same in assay [5]. The assay is described as follows: blocking ELISA, negative control: 1 nM VEGF bound to wells coated with VEGFR2 (sFlk-1) with 1000 nM control IgG of irrelevant specificity (1000x) present; bound VEGF detected with rabbit anti-VEGF A-20; the number measures VEGF:VEGFR2 binding, not binding of the control IgG to VEGF.

pEC50: −log10 of the molar value.

Chain of VEGF:sFlk-1 complex (human; mouse) (P15692 other isoform, or with tags, fused parts or gaps limits assumed, chain 1 of 2): as the sequence (P15692 other isoform, or with tags, fused parts or gaps) above
Chain of VEGF:sFlk-1 complex (human; mouse) (P35918 20-762 limits assumed, chain 2 of 2, further chain): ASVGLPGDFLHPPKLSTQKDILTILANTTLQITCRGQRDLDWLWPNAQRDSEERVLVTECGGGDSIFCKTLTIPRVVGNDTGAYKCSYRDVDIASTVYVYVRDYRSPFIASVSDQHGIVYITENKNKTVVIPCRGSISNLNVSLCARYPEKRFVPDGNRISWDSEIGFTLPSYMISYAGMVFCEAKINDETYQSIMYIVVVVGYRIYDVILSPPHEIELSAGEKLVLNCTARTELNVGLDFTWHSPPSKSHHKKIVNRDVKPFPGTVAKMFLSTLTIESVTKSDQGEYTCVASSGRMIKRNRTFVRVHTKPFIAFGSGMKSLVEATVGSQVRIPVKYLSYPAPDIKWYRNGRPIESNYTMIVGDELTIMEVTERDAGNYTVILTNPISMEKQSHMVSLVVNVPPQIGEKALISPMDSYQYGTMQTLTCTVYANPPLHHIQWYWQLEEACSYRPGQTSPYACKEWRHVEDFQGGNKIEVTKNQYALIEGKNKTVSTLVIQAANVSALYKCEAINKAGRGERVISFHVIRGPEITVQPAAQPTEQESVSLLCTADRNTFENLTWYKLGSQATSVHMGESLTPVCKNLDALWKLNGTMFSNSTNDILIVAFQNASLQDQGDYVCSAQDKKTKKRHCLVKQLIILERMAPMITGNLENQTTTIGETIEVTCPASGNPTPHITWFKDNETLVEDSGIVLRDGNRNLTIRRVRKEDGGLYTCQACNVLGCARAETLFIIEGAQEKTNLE

Usually pEC50 stands for −log10 of the EC50, conventionally taken in molar units. “A4.6.1, mouse anti-human VEGF monoclonal antibody (Genentech)”: the pEC50 in assay [1] is 6.30.
“control IgG of irrelevant specificity (antibody)”: the % of VEGF alone came to 92% in assay [2], 96% in assay [3], 98% in assay [4] and 93% in assay [5].
For the substance “irrelevant IgM (negative control) (antibody)”, in assay [1], the negative-log EC50 (pEC50) is 6.22.
